Test system: K4 kissing-loop RNA reporter
Assay: apparent KD of K4 kissing-loop reporter; higher = weaker reporter binding
Conditions: Eterna round: R107
Method: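 RNA-MaP round R107: designed RNA switches with theophylline, tryptophan, arginine or FMN aptamers are transcribed on-chip within common flanks. They are titrated with a labelled K4 kissing-loop RNA reporter in RNA-MaP buffer (100 mM Tris pH 7.5, 80 mM KCl, 4 mM MgCl2), without ligand or with the indicated ligand. Median apparent KD per design.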

[1] = input ligand: theophylline 20 uM
[2] = input ligand: tryptophan 2.4 mM
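Also: bound reporter read as fluorescence of individual clusters on recovered sequencing chips by microscopy, with normalized cluster intensities fitted with a binding model.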

Row | Sequence | apparent KD of K4 kissing-loop reporter (input ligand: FMN 200 uM) | apparent KD of K4 kissing-loop reporter (input ligand: arginine 13.2 mM) | apparent KD of K4 kissing-loop reporter (input ligand: none) | apparent KD of K4 kissing-loop reporter [1] | apparent KD of K4 kissing-loop reporter [2]
1 | UCGCGUCUGUGAGGAUAUCAGAACAGAGUGAUGUUCUGUCAACGCCCAGUGAUGUUGGAUGCGAUCUGAGAAGGCACUGGGCGCA [Same State FMN B GF 9] | 1060 nM | 865 nM | 1320 nM | 1700 nM | 1160 nM
2 | UCGUUAAAAGCGGCCGCCACUGCCAGAGCUCUGGAAAAGGCUGGAGUGAUGUUCUGCCUAGUAGACAGGACCGGGCUAUUGGAUU [theeternabot_sameState_KL_Trp_B_29] | 667 nM | 422 nM | 609 nM | 588 nM | 594 nM
3 | UCUCAUCUCAGAAGGAGCGUGAGAGAAUAUUAGAAAUCGUCGAGUGAUGUUCGACGUCUCUCACAGGUAGGUCGCUGAGACGUCA [Arg B SS t9] | 111 nM | 107 nM | 97.4 nM | 121 nM | 111 nM
4 | UCUGUUGUAUAUGAUACCAGCAGUGAGAGAUGAGAAGUAUAGUGAUGUUAUAUGAGAGAAUGCCCUUGGCAGCGUGUGCGUGUGG [SSTheophylB.aC] | 105 nM | 98.3 nM | 83.2 nM | 100 nM | 76.9 nM
5 | UCUUUUGGCAUGGAUAGAAUGCCGACCGAUACCAGCAAAGUAGGAUGCCCUUGGCAGCGGAGUGAUGUUCCAUUGUCGCGGUUUG [theeternabot_exclusion_KL_Theo_A_48] | 82.7 nM | 91.3 nM | 86.9 nM | 84.4 nM | 76.9 nM
6 | UGACAUUGCUCAGAUACCAGACAUGAGCAUCAGCCAUGUACCAAGAAAGUACAAUAAAAUGUCCCUUGGCAGCUGAGCAAUGUCU [TheoBX 8] | 56.1 nM | 25.6 nM | 47.8 nM | 121 nM | 48.4 nM
7 | UGACAUUGCUCAGAUACCAGACAUGAGCAUCAGCCAUGUGCCAAAACGUACUAAAUAAAUGUCCCUUGGCAGCUGAGCAAUGUCU [TheoBX 13] | 65 nM | 26.3 nM | 40.7 nM | 73.3 nM | 61.3 nM
8 | UGACUGGACUGAAGGAGCGCUGAAGGAGCGUAAGCAGUGAUGUUGCUUACAGGUAGGUCGCAGCAGGUAGGUCGCAGUCUAGUCU | 93.5 nM | 78.7 nM | 93.4 nM | 90 nM | 99.6 nM
9 | UGACUGGAUGGAAGGAGCGCUAAACUCCUAGUGAUGUUAGGGAAAUGAGGCAAAGCCUCGAGGCAGGUAGGUCGCCAUCUAGUCU [FiskerMod 18 - Jieux - Same State - Arginine B] | 160 nM | 121 nM | 155 nM | 148 nM | 144 nM
10 | UGAUACCAGACGGCCGCCACUACACCAGUCAAAGACUGGAUGUGAAAUUCGACCAGUGAUGUUGGUAGGACCGGGUCUGGUAUCU [TrypBX 8 #SwitchBubble #StaticStem] | 383 nM | 313 nM | 379 nM | 347 nM | 591 nM
11 | UGAUACCAGACGGCCGCCACUCCCGCAGGUCAAAGACCUGCGAAGCUGGUUCUUCAGUGAUGUUGGAGGACCGGGUCUGGUAUCU [FiskerMod 24 - Jieux - Exclusion - Tryptophan B] | 306 nM | 230 nM | 266 nM | 263 nM | 504 nM
12 | UGAUACCAGACGGCCGCCACUCCUGCAGUCAAAAGACUGCUAAAGGAAAUCGUCCAGUGAUGUUGGAGGACCGGGUCUGGUAUCU [TrypBX 16 #SwitchBubble #Palindromic #StaticStem] | 1120 nM | 719 nM | 1380 nM | 991 nM | 403 nM
13 | UGAUACCAGACGGCCGCCACUGCACCAGUCAAUGACUGAGUGUGGUAAUGCUCAGUGAUGUUGAGUAGGACCGGGUCUGGUAUCU [Mod of Eli's TrypBX 8 v2] | 135 nM | 124 nM | 131 nM | 114 nM | 124 nM
14 | UGAUACCAGACUGAUACCAGCAAGUGAUGUUUGUUGAUCAAAAGCAGUCAAAGACUGCUUUGCCCUUGGCAGCAGUCUGGUAUCU [#10 K4 Theophylline B Exclusion] | 167 nM | 148 nM | 166 nM | 276 nM | 141 nM
15 | UGAUACCAGACUGAUACCAGCCAGUGAUGUUGGCUAAGCCAAAUAGGUGUCAAAGACACCGGCCCUUGGCAGCAGUCUGGUAUCU [TheoBX 2 #SwitchBubble #StaticStem] | 133 nM | 113 nM | 126 nM | 136 nM | 119 nM
16 | UGAUACCAGACUGAUACCAGCGAGUGAUGUUCGCUGAAAUCAGGGUCAAAGACCCUGUCUCGCCCUUGGCAGCAGUCUGGUAUCU [TheoBX 20 #SwitchBubble #StaticStem] | 147 nM | 120 nM | 133 nM | 185 nM | 128 nM

Row | Sequence | apparent KD of K4 kissing-loop reporter (input ligand: FMN 200 uM) | apparent KD of K4 kissing-loop reporter (input ligand: arginine 13.2 mM) | apparent KD of K4 kissing-loop reporter (input ligand: none) | apparent KD of K4 kissing-loop reporter [1] | apparent KD of K4 kissing-loop reporter [2]
17 | UGAUAGGACAGAAGGAGCGGAAGUGAUGUUUCCUAAAGGAUAAAGGUGUCAAAGACACCCUUCCAGGUAGGUCGCUGUCCUAUCU [ArgBX 16 #Palindromic #SwitchBubble #StaticStem] | 549 nM | 923 nM | 579 nM | 532 nM | 566 nM
18 | UGAUAGGACAGAAGGAGCGGGAGUGAUGUUCCCAAAAGGGUAAGGUGUCAAAAGACACCCUUCCAGGUAGGUCGCUGUCCUAUCU | 97.7 nM | 105 nM | 97.5 nM | 102 nM | 83.9 nM
19 | UGAUAGGACAGAAGGAGCGGUAGUGAUGUUACCAAAAGGAUAAGGUGUCAAAAGACACCCUACCAGGUAGGUCGCUGUCCUAUCU | 124 nM | 112 nM | 107 nM | 85.1 nM | 109 nM
20 | UGAUAGGACAGAAGGAGCGGUAGUGAUGUUACCAAAAGGUUAAGGUGUCAAAAGACACCCUACCAGGUAGGUCGCUGUCCUAUCU | 152 nM | 164 nM | 161 nM | 126 nM | 136 nM
21 | UGAUAGGACAGAAGGAGCGGUAGUGAUGUUGCCAAAAGUAUAAGGUGUCAAAAGACACCCUACCAGGUAGGUCGCUGUCCUAUCU | 319 nM | 346 nM | 354 nM | 541 nM | 340 nM
22 | UGAUCUCGGCAGUGAUGUUGCAUAUGAGAAGGAGCGCACGAAAGUGCAGGUAGGUCGCUCAGCCAAAGAAAAUAAAACGAGAUCU [#SwitchBubble #K4Early] | 93.4 nM | 121 nM | 101 nM | 124 nM | 82 nM
23 | UGCGCUGUGUCCUAAAAUGUCCUCCGGGAUACCAGAGUCUUUUUAUUCCCUUGGCAGCUUGAGUGAUGUUUGAUGCCGUUCUUGU [xxbxymullin] | 811 nM | 478 nM | 790 nM | 519 nM | 607 nM
24 | UGGACAUGACUCGAUAAGAGUCAAUGGGAUACCAGUGACGAAAGUCACCCUUGGCAGCUCAACUGCCAGUGAUGUUGGUAGUCCA [Astros-Elo-mod#2] | 231 nM | 129 nM | 224 nM | 134 nM | 166 nM
25 | UGGACCUGACUCGAUAAGAGUCAAGGAGAUACCAGCCACGAAAGUGGCCCUUGGCAGCUCUGCCAGUGAUGUUGGUCAAGGUCCU [#SwitchBubble 7 #StaticStem] | 976 nM | 696 nM | 912 nM | 393 nM | 776 nM
26 | UGGAGUUGACGAAAAGUCAACUCCAGAGAAGGAGCGGACGAAAGUCCAGGUAGGUCGCUCACUACCAGUGAUGUUGGUACUAAAA | 167 nM | 190 nM | 204 nM | 204 nM | 181 nM
27 | UGGAGUUGACGAAAAGUCAACUCCUGGGAAGGAGCGGACGAAAGUCCAGGUAGGUCGCUCACUACCAGUGAUGUUGGUACUUAAA | 229 nM | 350 nM | 293 nM | 299 nM | 206 nM
28 | UGGAUAUAGUGAUGUUAUAUAGAGAUGGAUACCAGCUAAGAGAAUAGCCCUUGGCAGCCGAAAGAAGUAUCAUUAGAGAAGAAUG [ExTheophyl.Ae] | 294 nM | 231 nM | 280 nM | 253 nM | 212 nM
29 | UGGCGGACGAUCCGGAGUGAUGUUCCGGAUACCAGCAGAAGAGCCUGCCCUUGGCAGCCGUACGACGCUGGGAGAGUCCGGCGUC [Soteina] | 83.8 nM | 90.3 nM | 81.1 nM | 66.7 nM | 76.9 nM
30 | UGGGCCGCCUGAGGAUAUAGAGACGAGUGAUGUUCGUGGAUAAGAGCCAGUGAUGUUGGGUUAUUUCUAGAAGGCGGGCGAACUU [Exclusion FMN B GF9] | 144 nM | 95.1 nM | 98.6 nM | 164 nM | 131 nM
31 | UGGUUUAACUGAAGGAGCGGCAAUUGAUAAGUAGAUAUAGUGAUGUUAUAUAAGAUAGAGAGCCAGGUAGGUCGCAGAGGUAUUU [ExArgB.P] | 215 nM | 218 nM | 212 nM | 248 nM | 197 nM
32 | UGUAAUUCGGCGGCCGCCACUGACCAUAGCCUUCGAUGGCCAGUGAUGUUGGCCUCUGGCUCUAACAGGACCGGGCCGAAUUGCG [Sotetiqu] | 243 nM | 133 nM | 178 nM | 157 nM | 116 nM

Source: the supplement of paper PMC9170038
